Values belong to the sequence of their own block, whether it stands above or below them.
How the values were obtained:
[1] = target: HLA-A*23:01; experiment: IEDB peptide-MHC binding, purified MHC/competitive/radioactivity; filed as Kd, often an IC50 or EC50 that approximates it; ≥ and ≤ were set here for values at or beyond the usual limits of such assays
[2] = target: HLA-A*24:02; experiment: as above
[3] = target: HLA-A*29:02; experiment: as above
[4] = target: HLA-A*01:01; experiment: as above
[5] = target: HLA-A*69:01; experiment: IEDB peptide-MHC binding, purified MHC/direct/fluorescence; filed as Kd, often an IC50 or EC50 that approximates it; ≥ and ≤ were set here for values at or beyond the usual limits of such assays; details: source organism: Homo sapiens
[6] = target: HLA-B*07:02; experiment: as above; details: source organism: Homo sapiens
[7] = target: HLA-A*26:01; experiment: IEDB peptide-MHC binding, purified MHC/competitive/radioactivity; filed as Kd, often an IC50 or EC50 that approximates it; ≥ and ≤ were set here for values at or beyond the usual limits of such assays
[8] = target: HLA-A*30:02; experiment: as above
[9] = target: HLA-B*40:01; experiment: as above
[10] = target: HLA-B*44:02; experiment: as above
[11] = target: HLA-B*58:01; experiment: IEDB peptide-MHC binding, purified MHC/direct/fluorescence; filed as Kd, often an IC50 or EC50 that approximates it; ≥ and ≤ were set here for values at or beyond the usual limits of such assays
[12] = target: HLA-B*44:03; experiment: IEDB peptide-MHC binding, purified MHC/competitive/radioactivity; filed as Kd, often an IC50 or EC50 that approximates it; ≥ and ≤ were set here for values at or beyond the usual limits of such assays
[13] = target: HLA-A*11:01; experiment: IEDB peptide-MHC binding, purified MHC/direct/fluorescence; filed as Kd, often an IC50 or EC50 that approximates it; ≥ and ≤ were set here for values at or beyond the usual limits of such assays; details: source organism: SARS-CoV1
[14] = target: HLA-B*15:01; experiment: as above; details: source organism: SARS-CoV1
[15] = target: HLA-A*03:01; experiment: as above; details: source organism: SARS-CoV1
[16] = target: HLA-A*01:01; experiment: as above; details: source organism: SARS-CoV1
[17] = source organism: Mammarenavirus whitewaterense
[18] = source organism: Dengue virus 4 Philippines/H241/1956
[19] = source organism: Mammarenavirus brazilense
[20] = source organism: Mammarenavirus lassaense
[21] = source organism: SARS coronavirus Tor2
[22] = source organism: Dengue virus 3 Martinique/1243/1999
[23] = source organism: Dengue virus 2 Jamaica/1409/1983

Sequence: AYTSSDDEI
Kd [1, 17]: 1580 nM | Kd [2, 17]: 4870 nM | Kd [3, 17]: 1590 nM

Sequence: STDGPERVIL
Kd [4, 18]: 18700 nM

Kd [5]: 7050 nM | Kd [6]: 5470 nM
Sequence: EPEPHILLF

Sequence: GYKETPFLT
Kd [7, 19]: ≥ 77900 nM | Kd [4, 19]: ≥ 65200 nM | Kd [8, 19]: ≥ 76900 nM

Sequence: NELPESLETL
Kd [9, 18]: 246 nM

Sequence: AGFPAGLTY
Kd [7, 20]: ≥ 77900 nM | Kd [1, 20]: ≥ 77700 nM | Kd [2, 20]: ≥ 77500 nM | Kd [4, 20]: ≥ 78100 nM | Kd [3, 20]: 68.9 nM | Kd [8, 20]: 287 nM

Sequence: HFAIGLALYY
Kd [7, 21]: 6.53 nM | Kd [1, 21]: ≥ 60900 nM | Kd [2, 21]: ≥ 70300 nM | Kd [4, 21]: 2320 nM | Kd [3, 21]: 0.233 nM | Kd [8, 21]: 236 nM

Sequence: CNLTSAWVMY
Kd [8, 18]: 554 nM

Kd ([10]; source organism: Homo sapiens): 143 nM
Sequence: EEKLSVVLF

Kd ([11]; source organism: Homo sapiens): 18800 nM | Kd [5]: 5060 nM | Kd [6]: 146 nM
Sequence: RPAKSMDSL

Sequence: IESQKNGSW
Kd [12, 22]: 166 nM | Kd [10, 22]: 452 nM

Sequence: NKAWMVHRQW
Kd [10, 22]: 12600 nM

Sequence: MEFIDGISL
Kd [12, 18]: 52.9 nM | Kd [9, 18]: 0.18 nM | Kd [10, 18]: 182 nM

Sequence: LTDDMIAAY
Kd [7, 21]: 1800 nM | Kd [1, 21]: ≥ 77800 nM | Kd [2, 21]: ≥ 77600 nM | Kd [3, 21]: 529 nM | Kd [8, 21]: 326 nM | Kd [13]: 4050 nM | Kd ([11]; source organism: SARS-CoV1): 6940 nM | Kd [14]: 636 nM | Kd [15]: 19300 nM | Kd [16]: 7 nM

Sequence: KEAKMLLDNI
Kd [12, 23]: 1760 nM

Sequence: LKIVRNMEKY
Kd [8, 23]: 55.2 nM

Sequence: MYIFFASFYY
Kd [7, 21]: 575 nM | Kd [1, 21]: 722 nM | Kd [2, 21]: 6650 nM | Kd [4, 21]: 6700 nM | Kd [3, 21]: 0.449 nM | Kd [8, 21]: 9.07 nM

Sequence: FSGALDTTSY
Kd [7, 21]: 9150 nM | Kd [1, 21]: ≥ 70000 nM | Kd [2, 21]: ≥ 70300 nM | Kd [4, 21]: 1310 nM | Kd [3, 21]: 678 nM | Kd [8, 21]: 451 nM

Sequence: LTSKELMMA
Kd [4, 23]: 5730 nM

Sequence: FDEISMATNY
Kd [7, 21]: 699 nM | Kd [1, 21]: ≥ 70000 nM | Kd [2, 21]: ≥ 70300 nM | Kd [4, 21]: 13000 nM | Kd [3, 21]: 18.4 nM | Kd [8, 21]: 4100 nM

Sequence: CKDGHVETFY
Kd [7, 21]: 3870 nM | Kd [1, 21]: ≥ 70000 nM | Kd [2, 21]: ≥ 70300 nM | Kd [4, 21]: 8080 nM | Kd [3, 21]: 171 nM | Kd [8, 21]: 506 nM

Sequence: VFQSATKII
Kd [7, 21]: ≥ 43600 nM | Kd [1, 21]: 0.162 nM | Kd [2, 21]: 0.211 nM | Kd [4, 21]: ≥ 59200 nM | Kd [3, 21]: 0.0425 nM | Kd [8, 21]: 199 nM

Sequence: RYNTRGNTY
Kd [7, 21]: ≥ 52200 nM | Kd [1, 21]: 8930 nM | Kd [2, 21]: 1790 nM | Kd [4, 21]: 13900 nM | Kd [3, 21]: 1770 nM | Kd [8, 21]: 31.3 nM

Sequence: KEENMVKSL
Kd [9, 22]: 156 nM

Sequence: VAGGLLTVCY
Kd [4, 23]: ≥ 37000 nM | Kd [8, 23]: 108 nM

Sequence: HEEPVPMSTY
Kd [12, 22]: 409 nM | Kd [10, 22]: 106 nM

Sequence: KEGDQYIYM
Kd ([9]; source organism: Dengue virus 1 Nauru/West Pac/1974): 45.1 nM

Sequence: DNAFNCTFEY
Kd [7, 21]: 132 nM | Kd [1, 21]: ≥ 70000 nM | Kd [2, 21]: ≥ 70300 nM | Kd [4, 21]: 4250 nM | Kd [3, 21]: 14.4 nM | Kd [8, 21]: 382 nM

Sequence: METLLLLGL
Kd [12, 22]: 33.2 nM | Kd [9, 22]: 81.3 nM | Kd [10, 22]: 8.98 nM

Sequence: SLDRKEFEEY
Kd [4, 18]: 1050 nM

Sequence: RYNLPTMCDI
Kd [7, 21]: ≥ 69700 nM | Kd [1, 21]: 180 nM | Kd [2, 21]: 601 nM | Kd [4, 21]: ≥ 70400 nM | Kd [3, 21]: 5260 nM | Kd [8, 21]: 90 nM

Sequence: AEYTNSVTNI
Kd [12, 18]: 51.6 nM | Kd [9, 18]: 158 nM | Kd [10, 18]: 280 nM

Reference: the Immune Epitope Database (IEDB)
